# The Human Domainome abundance scans (Beltran et al. 2025)
# ± gives the uncertainty stated by the source.
# B1: Nuclear receptor subfamily 4 group A member 2, residues 260 to 336; numbered along this chain, P43354 (parent)
# chain: EGLCAVCGDNAACQHYGVRTCEGCKGFFKRTVQKNAKYVCLANKNCPVDKRRRNRCQYCRFQKCLAVGMVKEVVRTD
# Variants of: B1
# Test: abundance fitness (aPCA) (normalised: wild type 0, dead -1); higher = more abundant; growth selection in yeast, the domain comes from the species named
# Conditions: Homo sapiens
row,Variant,abundance fitness
1,D49F,-0.204 ± 0.092
2,D49A,-0.135 ± 0.084
3,D49L,-0.222 ± 0.078
4,D49C,-0.67 ± 0.14
5,D49E,0.033 ± 0.097
6,D49M,-0.11 ± 0.37
7,D49Y,-0.148 ± 0.27
8,D49R,-0.22 ± 0.073
9,D49W,-0.21 ± 0.062
10,D49V,-0.326 ± 0.049
11,D49T,0.013 ± 0.23
12,D49G,-0.073 ± 0.035
13,K50T,0.102 ± 0.24
14,K50S,-0.001 ± 0.097
15,K50W,-0.031 ± 0.057
16,K50D,-0.215 ± 0.17
17,K50C,-0.115 ± 0.074
18,K50Y,0.024 ± 0.13
19,K50G,-0.045 ± 0.037
20,K50A,-0.098 ± 0.088
21,K50P,0.356 ± 0.29
22,K50R,-0.193 ± 0.082
23,K50F,-0.055 ± 0.094
24,K50E,0.175 ± 0.15

row,Variant,abundance fitness
1,K50L,-0.155 ± 0.073
2,C46R,-1.07 ± 0.22
3,C46V,-0.851 ± 0.077
4,C46L,-0.609 ± 0.1
5,C46A,-1.16 ± 0.37
6,C46S,-0.754 ± 0.19
7,C46W,-1.03 ± 0.13
8,C46M,-0.993 ± 0.35
9,C46E,-1.09 ± 0.46
10,C46G,-0.897 ± 0.056
11,K44M,0.037 ± 0.14
12,K44R,-0.03 ± 0.12
13,K44W,-0.126 ± 0.17
14,K44H,-0.129 ± 0.25
15,K44L,-0.096 ± 0.16
16,K44Y,-0.053 ± 0.37
17,K44V,-0.371 ± 0.21
18,K44T,-0.028 ± 0.15
19,K44D,-0.093 ± 0.16
20,K44G,-0.052 ± 0.09
21,V48S,-0.091 ± 0.17
22,V48W,-0.258 ± 0.05
23,V48C,-0.156 ± 0.067
24,V48L,-0.175 ± 0.067

row,Variant,abundance fitness
1,V48A,-0.409 ± 0.17
2,V48F,-0.407 ± 0.11
3,V48R,-0.449 ± 0.1
4,V48G,-0.493 ± 0.041
5,V48M,-0.032 ± 0.27
6,R60C,0.101 ± 0.066
7,Q57P,0.187 ± 0.25
8,Q57W,-0.28 ± 0.074
9,Q57E,-0.083 ± 0.11
10,Q57R,-0.289 ± 0.11
11,Q57M,0.463 ± 0.35
12,Q57L,-0.034 ± 0.065
13,Q57A,0.068 ± 0.097
14,Q57F,-0.177 ± 0.13
15,Q57S,0.083 ± 0.12
16,Q57Y,-0.158 ± 0.19
17,Q57V,-0.126 ± 0.054
18,R52D,0.002 ± 0.12
19,R52E,0 ± 0.094
20,R52M,-0.021 ± 0.1
21,R52L,-0.043 ± 0.057
22,R52C,-0.061 ± 0.071
23,R52S,-0.31 ± 0.14
24,R52G,0.065 ± 0.036

row,Variant,abundance fitness
1,R52W,0.01 ± 0.063
2,R52V,-0.021 ± 0.043
3,R52A,0.025 ± 0.083
4,R52Y,0.204 ± 0.47
5,R52K,0.041 ± 0.13
6,R52F,-0.08 ± 0.094
7,C56A,-0.941 ± 0.28
8,C56R,-1.06 ± 0.19
9,C56S,-0.667 ± 0.23
10,C56L,-1.09 ± 0.23
11,C56E,-0.894 ± 0.33
12,C56G,-1.05 ± 0.073
13,C56F,-1.21 ± 0.38
14,C56D,-0.707 ± 0.37
15,C56W,-0.908 ± 0.097
16,C56V,-1.05 ± 0.11
17,Y58C,-0.173 ± 0.064
18,Y58G,-0.298 ± 0.041
19,Y58A,0.041 ± 0.085
20,Y58F,0.051 ± 0.11
21,Y58W,-0.063 ± 0.052
22,Y58E,-0.055 ± 0.16
23,Y58L,-0.441 ± 0.079
24,Y58R,-0.345 ± 0.12

row,Variant,abundance fitness
1,Y58D,-0.123 ± 0.17
2,Y58V,-0.761 ± 0.075
3,Y58S,0.129 ± 0.078
4,R55Y,0.038 ± 0.16
5,R55D,-0.065 ± 0.13
6,R55L,0.035 ± 0.06
7,R55C,-0.028 ± 0.076
8,R55M,-0.089 ± 0.12
9,R55W,-0.026 ± 0.054
10,R55V,0.024 ± 0.04
11,R55S,-0.164 ± 0.1
12,R55E,-0.035 ± 0.12
13,R55A,-0.134 ± 0.081
14,R55G,-0.023 ± 0.035
15,P47E,-0.083 ± 0.17
16,P47A,-0.033 ± 0.13
17,P47W,-0.215 ± 0.062
18,P47I,0.009 ± 0.2
19,P47R,-0.102 ± 0.092
20,P47S,-0.076 ± 0.12
21,P47V,-0.056 ± 0.049
22,P47G,-0.085 ± 0.037
23,P47D,0.106 ± 0.098
24,P47M,-0.239 ± 0.48

row,Variant,abundance fitness
1,P47L,-0.004 ± 0.063
2,P47F,-0.183 ± 0.1
3,P47C,-0.184 ± 0.081
4,R51G,-0.001 ± 0.034
5,R51C,-0.188 ± 0.09
6,R51E,0.082 ± 0.12
7,R51W,0.054 ± 0.051
8,R51T,0.166 ± 0.21
9,R51M,0.019 ± 0.3
10,R51L,0.042 ± 0.056
11,R51V,-0.035 ± 0.041
12,R51Y,-0.109 ± 0.17
13,R51F,0.064 ± 0.096
14,C59A,-0.549 ± 0.12
15,C59E,-0.318 ± 0.29
16,C59R,-1.17 ± 0.2
17,C59W,-1.33 ± 0.22
18,C59V,-0.919 ± 0.096
19,C59F,-1.03 ± 0.22
20,N54I,0.164 ± 0.43
21,N54D,0.135 ± 0.2
22,N54V,-0.094 ± 0.052
23,N54S,0.148 ± 0.091
24,N54A,-0.148 ± 0.14

row,Variant,abundance fitness
1,N54C,-0.472 ± 0.11
2,N54L,-0.123 ± 0.065
3,N54F,-0.143 ± 0.12
4,N54P,-0.34 ± 0.43
5,N54R,-0.15 ± 0.11
6,N54E,-0.244 ± 0.24
7,N54W,-0.015 ± 0.061
8,N54Q,-0.032 ± 0.24
9,N54T,-0.555 ± 0.47
10,N54G,0.06 ± 0.038
11,R53M,-0.28 ± 0.25
12,R53Y,-0.3 ± 0.37
13,R53D,-0.175 ± 0.18
14,R53A,0.078 ± 0.11
15,R53Q,0.172 ± 0.3
16,R53C,-0.078 ± 0.061
17,R53I,-0.043 ± 0.22
18,R53E,-0.034 ± 0.12
19,R53L,-0.12 ± 0.061
20,R53V,0.019 ± 0.042
21,R53G,0.06 ± 0.037
22,R53F,-0.101 ± 0.088
23,R53S,0.084 ± 0.084
